Source: the DeepSol protein solubility set

assay: soluble on expression in E. coli; label from the status in PepcDB or PDB records

Soluble on expression in E. coli, not soluble:
MLRFFIQPQLNTIVDSVIGYEMLIKEYRDGTWRMPASFSAIPAHDMAELLIATAKELSLKVGSVSFNVDRNQILDDQLIHALIAAQTVLRPVKLIIELIENDVKPSVSDEQLIEVVTQLNDFGIQFCLDDVGSGINTWPAVKPLLPYTRELKYALQNYKEHLNESAAENHVTFWQNLATKHQMRFILEGIEDDNDDAWADSMNIDLRQGYYYGRP
MAHHHHHHMSVKNTFGTQAAKALCANLYTNWLSEDENVERIRDLLNRVLTLSATDQHSEMGAKNAASMTTAAAAAAGDKKGKAAGADALGNGARHSDPAVGLSTSSAAIHGNADRAQSPQPSPPQKSDKSAAALAADDRTPSPIQPSTSPTLIARFPGGVDELDYPHRAGSPVVTPVSPQPKPIVDPSAPLPHVGTGSLSPHGVHSLGSPRLDTTLNAAMVSGDLTIPLDASSTLSTTARESTTRFLHTSGSFAVTPPANLKQATLDEIPCFYSKRESRGLQIEVDVEEAQELSRLLEKNDPVKKTVWVFGDISSKVFKVPIWYKEALFKDIATRSGLDAATADTLTAAQIRTVYNDVYAPLSVSRRLYELICTHPKKEFITLSDLEGMGKYLVAAHPGLQFLQQPEFQEYYWHTVAVRIMYMLERQQCGRIYWRDFDRSDLPERMMELDAKDVNLVLDYFSYEHFYVLYCKFWELDTDRDLLVGFEDLCNYGQGSVVTGVIKRVVEGYGRPLSSGVPGKMDFEDFVYFCLSEEDKNSEPAVLYWFKVLDTDEDGVLSGYEMMQFFEENQQRFLEFSDSPEGDIAYEDTVCQMLDMVGFDRVKVRKYGVTLGDLRSCPTPANFFNMIFNASKFLLFEHRDPFGEHQMRLRVEKTEWDRFARAEYDRMAAEAQ
MGSDKIHHHHHHMLETYALKNGAVFISDAHFLPKSPHLIHTLKELLSAKPPQVFFMGDIFHVLVGYLPLDKEQQKIIDLIHALSEISQVFYFEGNHDFSMRFVFNSKVMVFERQNQPVLFQYDNKRFLLAHGDLFITKAYEFYITQLTSTWARFFLTFLNLLSFKTLYPLFKKLIYQKPVRLWELEPKELQSFIEKRLKAYQNYIKDLNIGSIDGIIEGHFHLKSGAKIPLNTPIYCPLPSFYYEQSLFKVSSSVLEPSQNKDA
MTQSRRTLTERRADELRLAIAEVAFDMFVADGNTSATVERISQAVGIAPRTFYRHFEVKEDVVRPIFTKSSDVIVDALASTGEDVALLEGLVAAFLSQMDGTALTPEARTFLGLMLTTPAYKIRWLDVDPPLRQAVADLLDRRLGLSADPYIHLLAADLIVHAARDAFQHWVSSQEREPTEALLRRSFTLILKGLEHVIPRT
MDSSNPSSLPLEKSSGNVQKGKLLNIWSRCIAQPSSFLGSSISRFWANADIKNRVCSAAIGRVNFVSKCLKKFPEVSLSCNISASLSLNTGKEKVKNEDLEKQERCHKVAMIEYEIQNLERQLKKRQF
MSIALLAAATSSMAQSLDKMNWLNEPQQWEIKEGKALVMDVPAKTDFWRISHYGFTVDDGPFYYATYGGEFEVKVKITGNYVTTFDQMGLMLRIDHENWIKAGVEYVDGKQNVSAVVTHRTSDWSVVQLPDAPRSLWIKAVRRLDAVEIFFSRDDKEYTMIRTCWLQDNCPVMVGLMGACPDGKGFTATFEEFKVTPLADQRRLEWAKKQADKLEHHHHHH
MAHHHHHHMNNSKENDSVSKLSFKNKNIKLIKVPKFVSNKWLQYNNKDIVGLLGCNNNNNNDSEITELYVQKDDSDNVKKLRCNKNNTVNTYILKQNVIKLKSTNKSVSNSAGTLNNKSNDYTNTNKGKNTMNNLSKDNSDKHKEFDYVVCADLIKTCDYTYSFLPTLDQDYSSILKERHYKTNVKKERFTIIETRNEENMDATHTLFKYYTSEDKLNNESKDKNMKNNKRLFTDNDNLNTVSHSTSKQKAKQSKKMHVFDLDKAKISIFKIFEREGQNGVPFSFFTKSFNIPANHIKGILDEIAIKGKRDTDKKTVYFLKNCIG
MQCELCGKEVKNIIKTRVEGVEMNVCEACAKFGMSPKGYSRKPRAVFKNETKQKQAKRPRKDMFDNLKTLVEDYGSLVKEAREKKNMTLEELSRAVGIKESLIHKIERNEIEPEEKYVKILEKALGISFYEEGDLNYETSNEDSEFTLGDFIKVKKRK
MQSKLITELTDLETAFHIRKEVFVKEQGVPLTDEFDTFDEIGEQCKHILVYYHELPVGTGRIRFVDGVGKLERICILKDYRTYGLGKVIIQTLEEIARNEQATKVKLHGQTQAEGFYKKLGYETSSDIFMEDGIPHILMTKMLS

Soluble on expression in E. coli, soluble:
MSLKILVVGPSWVGDMMMSQSLYRTLRARYPQAIIDVMAPAWCRPLLSRMPEVNEAIPMPLGHGALAIGERRKLGHSVRERRYDRAYVLPNSFKSALVPFFANIPLRTGWRGEMRYGLLNDARVLDKDAWPLMVERYVALAYDNGVMRCAKDLPQPLVWPQLQVNEGEKSQACSAFNLSNDRPIIGFCPGAEFGPAKRWPHYHYAALAKKLIDDGYQIALFGSAKDNEAGKEIIAAISSEQQAWCRNLAGETQLEQAVILIAACKAVVTNDSGLMHVAAALDRPLVALYGPSSPDFTPPLSHKARVIRLITGYHKVRKGDAAEGYHQSLIDITPERVLQELNELLAEKTEHEEAEGGSHHHHHH
MSLPMLQVALDNQTMDSAYETTRLIAEEVDIIEVGTILCVGEGVRAVRDLKALYPHKIVLADAKIADAGKILSRMCFEANADWVTVICCADINTAKGALDVAKEFNGDVQIELTGYWTWEQAQQWRDAGIGQVVYARSRDAQAAGVAWGEADITAIKRLSDMGFKVTVTGGLALEDLPLFKGIPIHVFIAGRSIRDAASPVEAARQFKRSIAELWG
MSLLNSPLAERIRPQNLSEYLSQNHLVGERGTLRQHILNGTIPSLILWGPPGTGKTTLANIIAQESKRPFYTLSAINSGVKDVREVIDKAKSAGGLFTAKNPILFIDEIHRFSKSQQDSLLAAVEKGWVTLIGATTENPSFEVIPALLSRCQVYVLDAFAKADLEQLLHRAMKIDEVLSIKDITIQETEALLRISGGDARKLLNIFELVINSQPSGPIVITNELVFEQVQSNPARYDKTGEQHYDIISAFIKSIRGSDPNAAVYWLARMIEGGEDLKFIARRMLILASEDIGNANPTALIMANNTFQAVSTIGYPESRIILSQCAIYLATSIKSNASYLAIGQAQQIVKQTGDLPVPLGLRNAPTKLMKELGYGQEYKYAHDHPGNFAQFDFLPTEISGTKIFNPGNNPREQAQREFLEKRWKEHYDYKPSKGEGHHHHHH
MAHHHHHHMWQHHNLSSPTLGPREAKPTVQTSRRGCMRSDAWCSSLAGGGHDDPSESVPNSRVSPRASSFAPPQRTAPSPTESTSQELFELQNCNHHKQQQKQQLVIRQEDIRDDDFQRLEVLGDGSYSVVVSARHLPTQQLVALKEVSRHRLRELKLEKQLQWEINVHRTLRHPNVVRMLSYYITPQTVVLVLEMCPGGTLLQKLKTMPGGRFDERRASRYVRQAARALTYLHGHGIAHRDLKLENIFLDAHGVARLGDFGWSKALVEPTVEQDLSSHHDNFGTAPCSAAKDVSPLCSGGRGRLTVCGTLDYLSPEMLIGMPHTFKTDVWSLGVMLAEMLTGAPPFYCVSQQDTLNAIREAAPHLGDDVQMSSLARELVLAMLQKNPDARPTMAEVLQHPWTRQNGEKKKKKK
MLKHIPKNISPDLLKTLMEMGHGDEIVLADANYPSASCANKLIRCDGVNIPELLDSILYLMPLDSYVDSSIQFMNVVSGDDIPKIWGTYRQMIEGHGTDLKTITYLRREDFYERSKKAYAIVATGETSLYANIILKKGVVVERENVQ
MSLDEEKVGTEVPDPEISKMLFSEFCKSDGIGVSDVTKEEEFRYEDAWLTGYTYTQEVSIADLTEIISHSLTIQYGNNRSSVTFTDEIGTERKYTLNEEGYATQCEYASLDQKRQYTFLYTDGYLTQVNEKIMPREGSSDAVVAHTLSLQYDKGDLISTISPSLPYESSTGYGKLQTNYEAGEDINYYRLPCMLVADTYPLSFHREALFAGMLGKPTQHLTTASYPEKTSDTYTERTEYTYSFDKNKKPVSLKVSTKYGNGKSISYLNRTISITIEGHHHHHH
MAHHHHHHGSRFLIRLVPEDKDRAFKVPYNHQYYLQGLIYNAIKSSNPKLATYLHEVKGPKLFTYSLFMAEKREHPKGLPYFLGYKKGFFYFSTCVPEIAEALVNGLLMNPEVRLWDERFYLHEIKVLREPKKFNGSTFVTLSPIAVTVVRKGKSYDVPPMEKEFYSIIKDDLQDKYVMAYGDKPPSEFEMEVLIAKPKRFRIKPGIYQTAWHLVFRAYGNDDLLKVGYEVGFGEKNSLGFGMVKVEGNKTTKEAEEQEKITFNSREELKTGV
